From patent US20230310650A1

Biological target: human extracellular signal-regulated kinase 1/2 (Erk) (human) (UniProt P27361)
Experiment: cell-based or functional assay

Chain of UniProt P27361 (P27361 2-379 limits assumed, chain 1 of 2): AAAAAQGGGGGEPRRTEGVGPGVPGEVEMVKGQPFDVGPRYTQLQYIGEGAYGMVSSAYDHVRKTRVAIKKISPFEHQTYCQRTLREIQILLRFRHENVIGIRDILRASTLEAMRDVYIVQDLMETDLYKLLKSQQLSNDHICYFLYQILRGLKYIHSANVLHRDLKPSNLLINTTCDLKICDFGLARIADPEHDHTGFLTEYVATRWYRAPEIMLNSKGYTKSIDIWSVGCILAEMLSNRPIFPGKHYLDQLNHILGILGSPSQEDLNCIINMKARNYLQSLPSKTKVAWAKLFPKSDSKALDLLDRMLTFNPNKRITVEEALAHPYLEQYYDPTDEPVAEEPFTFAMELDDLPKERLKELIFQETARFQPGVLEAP
Chain of UniProt P27361 (P28482 2-360 limits assumed, chain 2 of 2, further chain): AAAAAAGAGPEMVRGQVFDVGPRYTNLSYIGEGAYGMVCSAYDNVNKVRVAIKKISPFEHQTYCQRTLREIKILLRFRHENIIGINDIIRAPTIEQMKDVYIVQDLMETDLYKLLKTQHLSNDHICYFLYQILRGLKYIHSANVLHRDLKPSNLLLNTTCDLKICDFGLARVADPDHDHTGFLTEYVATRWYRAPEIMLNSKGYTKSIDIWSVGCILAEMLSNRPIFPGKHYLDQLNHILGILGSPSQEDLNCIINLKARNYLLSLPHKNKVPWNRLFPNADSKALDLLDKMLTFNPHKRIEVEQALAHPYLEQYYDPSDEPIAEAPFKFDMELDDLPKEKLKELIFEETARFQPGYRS

Q: Which decrease in p-Erk percentages of live t-Erk positive T cells (flow cytometry) after infection with E. coli TOP10 pGB4 does the source give for “MAPK phosphothreonine lyase OspF of Shigella flexneri, expressed from pGB4 as a fusion to TEM-1 (from UniProt Q8VSP9 1-239)” here?
A: > 60%
